Source: doi:10.1101/2021.03.07.433908 (bioRxiv, 2021)

Biological target: the molecule itself
Experiment: pulsed field gradient diffusion NMR

B1: Human αB-crystallin (natural protein)
chain: MDIAIHHPWIRRPFFPFHSPSRLFDQFFGEHLLESDLFPTSTSLSPFYLRPPSFLRAPSWFDTGLSEMRLEKDRFSVNLDVKHFSPEELKVKVLGDVIEVHGKHEERQDEHGFISREFHRKYRIPADVDPLTITSSLSSDGVLTVNGPRKQVSGPERTIPITREEKPAVTAAPKK
modifications: 15N labelled (HSQC spectra); 2H/13CH3 Ile δ1, Val γ1/γ2, Leu δ1/δ2 labelled (binding studies and diffusion analyses)
stoichiometry N: 28
